T1: activated factor VIII (FVIIIa): Recombinate Antihemophilic Factor activated with thrombin, P00451
T1 chain: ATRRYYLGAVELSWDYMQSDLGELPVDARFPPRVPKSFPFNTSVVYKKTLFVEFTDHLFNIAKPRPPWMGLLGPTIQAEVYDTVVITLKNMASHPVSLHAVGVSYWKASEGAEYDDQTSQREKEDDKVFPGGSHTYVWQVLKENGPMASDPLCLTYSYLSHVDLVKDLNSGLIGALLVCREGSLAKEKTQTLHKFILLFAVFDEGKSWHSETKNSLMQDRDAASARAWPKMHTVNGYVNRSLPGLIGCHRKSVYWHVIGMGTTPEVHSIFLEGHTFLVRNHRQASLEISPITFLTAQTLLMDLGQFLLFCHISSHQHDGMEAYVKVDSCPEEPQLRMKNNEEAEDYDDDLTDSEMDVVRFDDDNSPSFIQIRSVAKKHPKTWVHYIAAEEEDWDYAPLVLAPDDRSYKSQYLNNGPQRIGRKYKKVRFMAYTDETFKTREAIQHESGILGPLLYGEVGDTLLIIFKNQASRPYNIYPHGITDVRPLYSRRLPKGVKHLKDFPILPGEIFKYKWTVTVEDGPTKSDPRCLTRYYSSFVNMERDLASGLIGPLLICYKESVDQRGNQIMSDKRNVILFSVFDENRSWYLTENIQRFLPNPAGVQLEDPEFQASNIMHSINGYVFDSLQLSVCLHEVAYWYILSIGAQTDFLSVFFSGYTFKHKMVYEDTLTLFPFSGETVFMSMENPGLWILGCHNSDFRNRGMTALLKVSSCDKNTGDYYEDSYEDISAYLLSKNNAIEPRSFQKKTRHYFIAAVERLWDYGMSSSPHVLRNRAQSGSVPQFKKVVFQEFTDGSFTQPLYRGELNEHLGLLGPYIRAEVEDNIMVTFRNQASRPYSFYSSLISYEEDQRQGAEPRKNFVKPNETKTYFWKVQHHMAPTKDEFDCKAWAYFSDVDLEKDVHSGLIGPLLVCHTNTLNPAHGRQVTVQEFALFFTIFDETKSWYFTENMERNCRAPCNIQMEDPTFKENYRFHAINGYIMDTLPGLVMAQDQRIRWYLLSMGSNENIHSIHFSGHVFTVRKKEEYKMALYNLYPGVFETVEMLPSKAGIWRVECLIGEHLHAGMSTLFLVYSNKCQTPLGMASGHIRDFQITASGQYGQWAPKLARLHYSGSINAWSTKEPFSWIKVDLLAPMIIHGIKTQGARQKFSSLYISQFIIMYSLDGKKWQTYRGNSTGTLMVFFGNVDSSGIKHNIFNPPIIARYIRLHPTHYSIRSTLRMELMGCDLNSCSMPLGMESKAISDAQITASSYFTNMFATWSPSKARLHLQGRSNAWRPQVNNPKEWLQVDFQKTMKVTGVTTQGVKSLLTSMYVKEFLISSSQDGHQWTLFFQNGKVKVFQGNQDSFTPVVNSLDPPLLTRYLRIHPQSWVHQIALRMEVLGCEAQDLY

B1: FIX-Y94F/K98T/Y177F (recombinant, full length, HEK 293), activated form (protein)
chain: YNSGKLEEFVQGNLERECMEEKCSFEEAREVFENTERTTEFWKQYVDGDQCESNPCLNGGSCKDDINSYECWCPFGFEGKNCELDVTCNIKNGRCEQFCKNSADNKVVCSCTEGYRLAENQKSCEPAVPFPCGRVSVSQTSKLTRAEAVFPDVDYVNSTEAETILDNITQSTQSFNDFTRVVGGEDAKPGQFPWQVVLNGKVDAFCGGSIVNEKWIVTAAHCVETGVKITVVAGEHNIEETEHTEQKRNVIRIIPHHNFNAAINTYNHDIALLELDEPLVLNSYVTPICIADKEYTNIFLKFGSGYVSGWGRVFHKGRSALVLQYLRVPLVDRATCLRSTKFTIFNNMFCAGFHEGGRDSCQGDSGGPHVTEVEGTSFLTGIISWGEECAMKGKYGIYTKVSRYVNWIKEKTKLT
B2: FIX-Y94F/K98T/Y177F/I213V/E219G (recombinant, full length, HEK 293), activated form (protein)
chain: B1 chain with I383V, E388G
B3: FIX-Y94F/A95aK/K98T/Y177F/I213V/E219G (recombinant, full length, HEK 293), activated form (protein)
chain: B1 chain with A261K, I383V, E388G
B4: FIX-Y94F/A95aK/K98T/Y177F (recombinant, full length, HEK 293), activated form (protein)
chain: B1 chain with A261K

Substitutions are numbered along the chain they refer to. Names and notes keep the numbering of the source.

In the first data set the target is factor X (FX), P00742.
factor X (FX), P00742, sequence (P00742 whole entry, looked up): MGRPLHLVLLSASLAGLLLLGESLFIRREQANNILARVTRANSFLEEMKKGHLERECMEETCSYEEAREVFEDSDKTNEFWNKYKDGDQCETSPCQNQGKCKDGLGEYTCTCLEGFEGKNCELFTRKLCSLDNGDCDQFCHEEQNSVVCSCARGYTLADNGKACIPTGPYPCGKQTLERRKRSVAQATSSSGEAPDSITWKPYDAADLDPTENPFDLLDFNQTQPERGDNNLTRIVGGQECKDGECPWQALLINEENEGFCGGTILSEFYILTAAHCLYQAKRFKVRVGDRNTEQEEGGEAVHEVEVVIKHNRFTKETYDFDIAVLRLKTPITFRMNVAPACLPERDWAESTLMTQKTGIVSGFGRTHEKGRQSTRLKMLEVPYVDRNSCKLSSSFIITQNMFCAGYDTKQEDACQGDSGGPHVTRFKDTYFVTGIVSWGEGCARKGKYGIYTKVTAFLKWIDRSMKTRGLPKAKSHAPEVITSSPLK
Turning to B1, the KM (nM), FX activation with FVIIIa worked out at 14 nM; the KM (nM), FX activation without FVIIIa came out at 68 nM; the kcat (10^-3 min^-1), FX activation without FVIIIa was 0.000333 s⁻¹; the kcat (min^-1), FX activation with FVIIIa was 68 min⁻¹. The kcat/KM (10^-6 nM^-1 min^-1), FX activation without FVIIIa was 4880 M⁻¹ s⁻¹; the kcat/KM (nM^-1 min^-1), FX activation with FVIIIa is 8.33e+07 M⁻¹ s⁻¹; the “rate of FX activation against pdFIXa” value is “FIX-WT and FIX-Y94F/K98T/Y177F activated FX at the same rate as pdFIXa”.

B2: the KM (nM), FX activation with FVIIIa stood at 17 nM; the KM (nM), FX activation without FVIIIa turned out to be 40 nM; the “fold increase of kcat of FX activation against pdFIX” value was “enhanced the kcat by a factor of 17 and 6, respectively”; the kcat (10^-3 min^-1), FX activation without FVIIIa stood at 0.00222 s⁻¹. Further, the kcat (min^-1), FX activation with FVIIIa was 528 min⁻¹; the kcat/KM (10^-6 nM^-1 min^-1), FX activation without FVIIIa was 54900 M⁻¹ s⁻¹; the kcat/KM (nM^-1 min^-1), FX activation with FVIIIa turned out to be 5.33e+08 M⁻¹ s⁻¹.

For B3, the KM (nM), FX activation with FVIIIa is 13 nM; the KM (nM), FX activation without FVIIIa is 55 nM; the “fold increase of kcat of FX activation against pdFIX” value is “enhanced the kcat by a factor of 17 and 6, respectively”; the kcat (10^-3 min^-1), FX activation without FVIIIa was found to be 0.00102 s⁻¹. The kcat (min^-1), FX activation with FVIIIa is 122 min⁻¹; the kcat/KM (10^-6 nM^-1 min^-1), FX activation without FVIIIa is 18200 M⁻¹ s⁻¹; the kcat/KM (nM^-1 min^-1), FX activation with FVIIIa came to 1.5e+08 M⁻¹ s⁻¹.

As for B4, the KM (nM), FX activation with FVIIIa is 20 nM; the KM (nM), FX activation without FVIIIa came to 73 nM; the kcat (10^-3 min^-1), FX activation without FVIIIa was 6.67e-05 s⁻¹; the kcat (min^-1), FX activation with FVIIIa is 7 min⁻¹. For the same protein, the kcat/KM (10^-6 nM^-1 min^-1), FX activation without FVIIIa came out at 950 M⁻¹ s⁻¹.

Another data set deals with T1, activated factor VIII (FVIIIa): ….
As for B1, the “ratio kcat/KM +/- FVIIIa (FX activation)” value is on record as 16,424.

Regarding B2, the “ratio kcat/KM +/- FVIIIa (FX activation)” value is recorded as 9,581.

As for B3, the “ratio kcat/KM +/- FVIIIa (FX activation)” value is listed as 8,354.

Regarding B4, the “ratio kcat/KM +/- FVIIIa (FX activation)” value was 5,705.

The values are drawn from patent publication US20080214461.
